Patent US20240425618A1 (YOUCARE PHARMACEUTICAL GROUP, published 2024)

Molecular target: polypeptide N52 simulating a target sequence (SARS-CoV-2, N-terminal acetyl (Ac); C-terminal amide (NH2))

B1: lipopeptide IPB24 (peptide)
peptide: SVVNIQKEIDRLNEVAKNLNESLIDLQELGKYEQYIKK
modifications: N-terminal acetyl (Ac); flexible linker PEG4 (from Fmoc-NH-PEG4-CH2CH2COOH) between the antiviral polypeptide sequence and the C-terminal K; cholesteryl hemisuccinate on the C-terminal K; C-terminal amide (NH2)
  Tm of the complex: 90 °C
